Here are results for two molecules from publication PMC10123100, “Single-molecule visualization of stalled replication-fork rescue by the Escherichia coli Rep helicase”.

Data set [1] has as its target T1, Rep WT (Escherichia coli, UniProt P09980 1-673). In words: SPR; no nucleotide, 5 mM Mg2+; 20 nM Rep; kon 1.03e6 M-1 s-1, koff 2.15e-4 s-1; SPR: 25 mM Tris-HCl pH 7.6, 50 mM NaCl, 5 mM MgCl2, 0.25 mM DTT, 0.2 mM EDTA, 0.005% P20, 20 C; single-molecule: 25 mM Tris-HCl pH 7.9, 10 mM Mg acetate, 50 mM. As to conditions: protein: recombinant; chain copies: 2; single strand.

The next data set addresses Rep K28A (Escherichia coli, UniProt P09980 1-673, K28A). In words: SPR; 200 uM ATP, dissociation not stimulated; SPR: 25 mM Tris-HCl pH 7.6, 50 mM NaCl, 5 mM MgCl2, 0.25 mM DTT, 0.2 mM EDTA, 0.005% P20, 20 C; single-molecule: 25 mM Tris-HCl pH 7.9, 10 mM Mg acetate, 50 mM. As to conditions: protein: recombinant; tags: His6; chain copies: 2; single strand.
For data set [2], the target named is T1, Rep WT. In words: SPR; no nucleotide, 5 mM Mg2+; kon 1.22e7 M-1 s-1, koff 5.91e-3 s-1; SPR: 25 mM Tris-HCl pH 7.6, 50 mM NaCl, 5 mM MgCl2, 0.25 mM DTT, 0.2 mM EDTA, 0.005% P20, 20 C; single-molecule: 25 mM Tris-HCl pH 7.9, 10 mM Mg acetate, 50 mM. As to conditions: protein: recombinant; chain copies: 2; single strand.

B1: 3'-bio-dT35 (ssDNA)
DNA: TTTTTTTTTTTTTTTTTTTTTTTTTTTTTTTTTTT
modifications: 3'-biotin
As to B1, the equilibrium dissociation constant (Kd) with Rep WT [1] stood at 200 pM. Besides, the binding result with Rep K28A is “binds”.

B2: 3'-bio-dT15 (ssDNA)
DNA: TTTTTTTTTTTTTTT
modifications: 3'-biotin
For the molecule B2, in the data set with Rep WT [2], the equilibrium dissociation constant (Kd) came out at 500 pM.
